Measured values reported in publication doi:10.1101/730739.

Key:
[1] = molecular target: caprine transferrin (goat); test: ELISA
[2] = molecular target: ovine transferrin (sheep); test: ELISA
[3] = molecular target: BAP-tagged Histophilus somni Transferrin binding protein B (aa 21-643) (Histophilus somni strain H191); test: BLI

absorbance signal relative to that with bovine transferrin [1] | absorbance signal relative to that with bovine transferrin [2] | fold lower affinity than for bovine transferrin [3] | Substance
0.25 fold | 0.25 fold |  | Histophilus somni Transferrin binding protein A 2 (receptor)
 |  | 15.7 fold | caprine transferrin (ligand)
 |  | 3 fold | ovine transferrin (ligand)
